Assay results taken from the supplement of paper PMC10724198.
± gives the standard deviation of the averaged measurements.

Experiments:
Saccharomyces cerevisiae [1] = experiment: protein stability index of tFT-peptide fusion (C-terminal peptide) (PSI (0-1 scale)); higher = more stable (slower turnover)
Protocol: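 MPS profiling in S. cerevisiae of the tFT-X12 degron library: putative degron peptides plus stable controls, 12 aa, fused to the C-terminus of a sfGFP-mCherry timer. Cells are FACS-sorted into 8 mCherry/sfGFP bins and deep-sequenced. PSI runs from 0 (unstable) to 1 (stable). Backgrounds are wild type, das1Δ and doa10Δ at 30 °C, and wild type, das1Δ, cdc34-1 and cdc53-1 at 37 °C; 2-3 technical replicates each.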

Saccharomyces cerevisiae [2] = experiment: as above; settings: genetic background: wild type; temperature: 30 C
[3] = genetic background: cdc34-1, temperature: 37 C
[4] = genetic background: cdc53-1, temperature: 37 C
[5] = genetic background: das1 deletion, temperature: 30 C
[6] = genetic background: das1 deletion, temperature: 37 C
[7] = genetic background: doa10 deletion, temperature: 30 C
[8] = genetic background: wild type, temperature: 30 C
[9] = genetic background: wild type, temperature: 37 C
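Note: PSI is a weighted mean of sequencing reads over stability bins, variants kept only with over 10 reads, mCherry proximal and sfGFP distal, peptide attached via GGGS linker.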

Sequence	protein stability index (Saccharomyces cerevisiae [1]; [3])	protein stability index (Saccharomyces cerevisiae [1]; [4])	protein stability index (Saccharomyces cerevisiae [1]; [5])	protein stability index (Saccharomyces cerevisiae [1]; [6])	protein stability index (Saccharomyces cerevisiae [1]; [7])	protein stability index (Saccharomyces cerevisiae [1]; [8])	protein stability index (Saccharomyces cerevisiae [1]; [9])	protein stability index (Saccharomyces cerevisiae [2])
GMNGLFFIAMLG	0.53 ± 0.033	0.645 ± 0.041	0.514 ± 0.018	0.642 ± 0.035	0.195 ± 0.016	0.195 ± 0.029	0.398 ± 0.015	0.362 ± 0.02
GRLVPVILLKLV	0.3011 ± 0.0019	0.471 ± 0.015	0.441 ± 0.031	0.5625 ± 0.00087	0.0719 ± 0.018	0.0651 ± 0.015	0.0817 ± 0.0024	0.099045 ± 4e-05
GRRPVVDFLPCL	0.692 ± 0.045	0.7222 ± 0.004	0.697 ± 0.029	0.745 ± 0.009	0.7146 ± 0.0027	0.719 ± 0.037	0.742 ± 0.023	0.736 ± 0.0074
GSITFFKMVQSG	0.656 ± 0.021	0.748 ± 0.012	0.622 ± 0.021	0.744 ± 0.012	0.376 ± 0.014	0.417 ± 0.028	0.687 ± 0.011	0.469 ± 0.023
GSLPERPLRYVC	0.516 ± 0.035	0.6878 ± 0.004	0.651 ± 0.017	0.7239 ± 0.0021	0.1 ± 0.028	0.0973 ± 0.013	0.148 ± 0.016	0.162 ± 0.01
GSRRYYFTWVYQ	0.454 ± 0.038	0.697 ± 0.013	0.655 ± 0.019	0.722 ± 0.019	0.0716 ± 0.016	0.0885 ± 0.015	0.0876 ± 0.024	0.1178 ± 0.00012
GTEFSNVITYLV	0.713 ± 0.018	0.758 ± 0.018	0.6288 ± 0.003	0.775 ± 0.021	0.34 ± 0.0043	0.389 ± 0.027	0.6103 ± 0.0027	0.493 ± 0.08
GTLVFTYLVLRC	0.0997 ± 0.012	0.0693 ± 0.0078	0.197 ± 0.02	0.252 ± 0.032	0.365 ± 0.027	0.167 ± 0.035	0.229 ± 0.0083	0.314 ± 0.008
GTRAGNPDRQRS	0.678 ± 0.052	0.759 ± 0.011	0.638 ± 0.034	0.714 ± 0.025	0.656 ± 0.021	0.632 ± 0.022	0.706 ± 0.016	0.706 ± 0.013
GVRAGVRRAGVG	0.308 ± 0.019	0.418 ± 0.0075	0.399 ± 0.0055	0.414 ± 0.014	0.3927 ± 0.0033	0.382 ± 0.0068	0.402 ± 0.0045	0.402 ± 0.011
GVRRRQLIWSVC	0.532 ± 0.022	0.644 ± 0.014	0.468 ± 0.024	0.656 ± 0.0066	0.145 ± 0.0088	0.164 ± 0.039	0.28 ± 0.011	0.241 ± 0.092
GVVCWLVVTGFL	0.3865 ± 0.0018	0.48 ± 0.0076	0.286 ± 0.058	0.524 ± 0.0095	0.255 ± 0.0087	0.3 ± 0.019	0.463 ± 0.052	0.429 ± 0.013
GVVVGVLLVCGW	0.268 ± 0.028	0.435 ± 0.0061	0.28 ± 0.037	0.489 ± 0.0051	0.223 ± 0.016	0.265 ± 0.013	0.4614 ± 0.0016	0.36 ± 0.0081
HCNRLIFWYKCT	0.508 ± 0.082	0.745 ± 0.025	0.656 ± 0.052	0.723 ± 0.035	0.189 ± 0.0086	0.224 ± 0.032	0.298 ± 0.0068	0.288 ± 0.0074
HDLRRRVVSVMV	0.48 ± 0.046	0.4601 ± 0.0032	0.337 ± 0.025	0.55 ± 0.022	0.258 ± 0.013	0.297 ± 0.03	0.47615 ± 0.00044	0.372 ± 0.061
HFLRYCSWFGLL	0.656 ± 0.032	0.745 ± 0.015	0.6558 ± 0.0024	0.781 ± 0.013	0.142 ± 0.014	0.171 ± 0.017	0.353 ± 0.0095	0.15 ± 0.0097
HNLIRKHAKESS	0.63 ± 0.083	0.702 ± 0.0032	0.641 ± 0.034	0.699 ± 0.015	0.171 ± 0.036	0.249 ± 0.016	0.459 ± 0.054	0.394 ± 0.085
HPLYWRCVVVLN	0.213 ± 0.034	0.243 ± 0.024	0.211 ± 0.026	0.3733 ± 0.00077	0.073 ± 0.012	0.066 ± 0.031	0.0862 ± 0.015	0.15 ± 0.044
HSPPVPFPPPTS	0.647 ± 0.068	0.733 ± 0.035	0.651 ± 0.034	0.72 ± 0.0074	0.688 ± 0.012	0.672 ± 0.017	0.694 ± 0.024	0.358 ± 0.033
HVRLRFQPVLFV	0.527 ± 0.027	0.5455 ± 0.0014	0.404 ± 0.029	0.5487 ± 0.0044	0.356 ± 0.01	0.382 ± 0.026	0.5139 ± 0.0024	0.462 ± 0.0049

Sequence	protein stability index (Saccharomyces cerevisiae [1]; [3])	protein stability index (Saccharomyces cerevisiae [1]; [4])	protein stability index (Saccharomyces cerevisiae [1]; [5])	protein stability index (Saccharomyces cerevisiae [1]; [6])	protein stability index (Saccharomyces cerevisiae [1]; [7])	protein stability index (Saccharomyces cerevisiae [1]; [8])	protein stability index (Saccharomyces cerevisiae [1]; [9])	protein stability index (Saccharomyces cerevisiae [2])
HVSVIRRGICCA	0.266 ± 0.014	0.2978 ± 0.0018	0.271 ± 0.026	0.398 ± 0.0092	0.233 ± 0.0093	0.278 ± 0.015	0.3675 ± 0.0027	0.374 ± 0.034
ICQLLKFPLFWC	0.542 ± 0.025	0.567 ± 0.024	0.521 ± 0.024	0.7207 ± 0.0058	0.311 ± 0.019	0.288 ± 0.026	0.4916 ± 0.0032	0.113 ± 0.034
ICSRCLVTVLSC	0.4098 ± 0.0039	0.445 ± 0.0063	0.296 ± 0.037	0.514 ± 0.0071	0.198 ± 0.0024	0.217 ± 0.039	0.367 ± 0.015	0.311 ± 0.017
ICWVSLYFSMLV	0.457 ± 0.018	0.479 ± 0.019	0.373 ± 0.018	0.5069 ± 0.0045	0.3348 ± 0.00038	0.333 ± 0.025	0.464 ± 0.028	0.406 ± 0.084
IFAWPFSATIPW	0.74 ± 0.022	0.81258 ± 0.00076	0.696 ± 0.012	0.80758 ± 0.00033	0.706 ± 0.0086	0.7 ± 0.011	0.788 ± 0.032	0.784 ± 0.021
IFFYPFLIFCFV	0.251 ± 0.022	0.281 ± 0.026	0.267 ± 0.027	0.396 ± 0.019	0.2722 ± 0.00072	0.238 ± 0.032	0.332 ± 0.012	0.325 ± 0.018
IFVLLSYYPLFV	0.263 ± 0.016	0.279 ± 0.012	0.265 ± 0.019	0.422 ± 0.012	0.288 ± 0.016	0.243 ± 0.027	0.391 ± 0.0059	0.338 ± 0.018
IGSARIKLLCYH	0.6024 ± 0.0044	0.705 ± 0.014	0.592 ± 0.017	0.7434 ± 0.0024	0.124 ± 0.017	0.165 ± 0.027	0.331 ± 0.031	0.213 ± 0.0061
ILHRRCGLLLQI	0.47 ± 0.04	0.506 ± 0.0066	0.447 ± 0.015	0.538 ± 0.017	0.273 ± 0.0094	0.278 ± 0.025	0.4161 ± 0.0032	0.343 ± 0.016
ISVSVVFFVLRF	0.27578 ± 0.00014	0.369 ± 0.031	0.265 ± 0.041	0.429 ± 0.015	0.294 ± 0.017	0.279 ± 0.019	0.411 ± 0.011	0.3965 ± 0.0021
IYPPVSVTNLLV	0.6646 ± 0.0022	0.723 ± 0.0079	0.646 ± 0.036	0.723 ± 0.014	0.227 ± 0.029	0.255 ± 0.032	0.461 ± 0.0062	0.357 ± 0.1
KAEKNSKKTSTE	0.685 ± 0.073	0.721 ± 0.013	0.658 ± 0.064	0.68229 ± 0.0003	0.633 ± 0.031	0.649 ± 0.033	0.702 ± 0.021	0.698 ± 0.044
KALSSSYFGTRL	0.69 ± 0.025	0.745 ± 0.015	0.648 ± 0.014	0.743 ± 0.0082	0.649 ± 0.019	0.6755 ± 0.0058	0.7128 ± 0.007	0.735 ± 0.062
KCEKGLYCCIAF	0.608 ± 0.055	0.68 ± 0.036	0.518 ± 0.031	0.664 ± 0.0099	0.516 ± 0.025	0.534 ± 0.027	0.626 ± 0.018	0.504 ± 0.073
KEKGVTKIRISS	0.6166 ± 0.0019	0.6861 ± 0.0021	0.632 ± 0.024	0.7071 ± 0.0024	0.1724 ± 0.00028	0.195 ± 0.037	0.377 ± 0.024	0.295 ± 0.0055
KEKKKTKHNKIG	0.587 ± 0.059	0.7521 ± 0.0072	0.631 ± 0.014	0.742 ± 0.011	0.184 ± 0.029	0.155 ± 0.032	0.314 ± 0.02	0.216 ± 0.038
KIVNNTKKNKCH	0.638 ± 0.048	0.684 ± 0.0087	0.652 ± 0.039	0.738 ± 0.012	0.153 ± 0.021	0.195 ± 0.046	0.26 ± 0.058	0.226 ± 0.025
KLALVYLLIRGL	0.423 ± 0.015	0.496 ± 0.028	0.366 ± 0.031	0.5681 ± 0.00085	0.0641 ± 0.01	0.0862 ± 0.02	0.0975 ± 0.0076	0.125 ± 0.06
KLLGVLFVLFPG	0.486 ± 0.012	0.599 ± 0.034	0.367 ± 0.031	0.569 ± 0.01	0.324 ± 0.0068	0.336 ± 0.026	0.527 ± 0.018	0.443 ± 0.017
